In the supplement of paper PMC12042874:
± gives the uncertainty stated by the source.

Test: amyloid nucleation score (Sup35N fusion, yeast selection) (log enrichment); library NNK3; higher = more nucleation; inactive = no reads after selection
Method in brief: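 Growth for 7 days at 30°C on medium lacking adenine and uracil followed a 24-hour induction with 100 μM copper sulfate of psi-negative yeast expressing peptides of 20 random codons fused to Sup35N. Input and output plasmid inserts were sequenced with Illumina, and sequences with under 100 input reads were excluded. Nucleation score is the DiMSum log enrichment of output over input reads, centred on the mode score of non-aggregating sequences.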

MIFRAQDSYGPLYT
amyloid nucleation score: inactive

MIFVGILVFSDLRASKVPWV
amyloid nucleation score: inactive

MIGHFTYVGLWGSLATYVQV
amyloid nucleation score: inactive

MIIPSTVMQSLSTCILERAS
amyloid nucleation score: inactive

MILKNWNVSISRGSRFNSYV
amyloid nucleation score: inactive

MILLFVVAFILLTEYICWAI
amyloid nucleation score: 0.601 ± 0.18

MILLLSGGCVTESFWG
amyloid nucleation score: inactive

MILSNKVLIGCE
amyloid nucleation score: inactive

MINSHDL
amyloid nucleation score: inactive

MIRSVLLIQFNALEHSVRCR
amyloid nucleation score: inactive

MISWLNQKYHVLNQNFIYG
amyloid nucleation score: inactive

MITDSGIYFAFCWDKSTVSS
amyloid nucleation score: inactive

MIVGYACFAFGAWFFGFYCM
amyloid nucleation score: inactive

MIVSQVCTRSHVMGRSLGAE
amyloid nucleation score: inactive

MIYSHDHTYHSCLLDAVSCR
amyloid nucleation score: inactive

MKDASFQP
amyloid nucleation score: inactive

MKLEEELSYRFRRSWFYALW
amyloid nucleation score: inactive

MKNRYLNRCTLVANAFGLKE
amyloid nucleation score: inactive

MKPSKGVDL
amyloid nucleation score: inactive

MKRGDDLHTLFITSVPKSGY
amyloid nucleation score: inactive

MLCKYTCLICYGYRTKRSSE
amyloid nucleation score: 0.684 ± 0.17

MLDAQSASWYYFRGSLFDVR
amyloid nucleation score: inactive

MLDISMEVSGCSILS
amyloid nucleation score: -0.261 ± 0.52

MLGVMCLYQVVFIDHSYSYR
amyloid nucleation score: inactive

MLITYTLYCVICLGC
amyloid nucleation score: 1.46 ± 0.072

MLLGRLSLEVKFEWIFPRIG
amyloid nucleation score: 0.687 ± 0.14

MLMVDDYEYMRFQMAGMVYM
amyloid nucleation score: inactive

MLPVIHIGVVSPRTFEQSSC
amyloid nucleation score: inactive

MLSVPDVVRFWMFKFYKFSW
amyloid nucleation score: inactive

MLYRCLAKYRMWHYVDLSLL
amyloid nucleation score: inactive

MMSMNMNLSYCYGFMGSHYS
amyloid nucleation score: 1.47 ± 0.097

MMTIRSSMLAKGLVNALATV
amyloid nucleation score: inactive

MNGMICISNCFKDGHVTLNK
amyloid nucleation score: 1.26 ± 0.16

MPFPVGNFHQGDNMNVSQCG
amyloid nucleation score: 0.61 ± 0.12

MPLTFTSRSSDVICLNVGSG
amyloid nucleation score: -0.232 ± 0.62

MPSRHFLGY
amyloid nucleation score: inactive

MQPGYQCDNVVRSCHDAHGY
amyloid nucleation score: inactive

MRAGWLYFWASANGDNQWEA
amyloid nucleation score: inactive

MRARLANKQGMGPRTRVASV
amyloid nucleation score: inactive

MRCSDGPPKWNHD
amyloid nucleation score: -0.277 ± 0.88

MRFDNVTMRVLLCFS
amyloid nucleation score: inactive

MRLMEQYFICCVM
amyloid nucleation score: 1.06 ± 0.17

MRTRGQTFTWGHYGCLLIDE
amyloid nucleation score: inactive

MRVVECLMRSLCRLDVRVHC
amyloid nucleation score: inactive

MRVVEYMTSLLSLIFYMGQK
amyloid nucleation score: inactive

MRYFFLTRNLGLRAEPVC
amyloid nucleation score: inactive

MSFTMMCMSFCSSILRYNLS
amyloid nucleation score: inactive

MSIDPHILVLVGEWLVCLKL
amyloid nucleation score: inactive

MSIIKKIG
amyloid nucleation score: inactive

MSLRLVMWFSNLVSYTV
amyloid nucleation score: inactive

MSPLGTCYRILKLDYCKYAV
amyloid nucleation score: -0.328 ± 0.55

MSRMMSLNMECTSGMPESQV
amyloid nucleation score: inactive

MSVRPL
amyloid nucleation score: inactive

MSVSSCLTPGDGNESHWNSR
amyloid nucleation score: inactive

MSYSFKAISAHNKQSVNNVW
amyloid nucleation score: inactive

MTILYYDS
amyloid nucleation score: inactive

MTLHAILFLTRSLDALYLLT
amyloid nucleation score: inactive

MTRVNFYFLFFELLLMAFGV
amyloid nucleation score: inactive

MTVHDIHYLS
amyloid nucleation score: inactive

MTYAVCGYSIFHKITRTRFG
amyloid nucleation score: inactive

MTYHDGTGLFGVVL
amyloid nucleation score: inactive

MVCNGFRDDRVMIVK
amyloid nucleation score: inactive

MVLGELCVPGIFALCRFECN
amyloid nucleation score: inactive

MVLYGAHECRDDKSVSLTRC
amyloid nucleation score: inactive

MVSSLRALCPQHFVCSVVCM
amyloid nucleation score: 0.885 ± 0.14

MVYGVSAVEVKSSLVGWVVA
amyloid nucleation score: inactive

MWFTLKMYTMRCCFEVTLRK
amyloid nucleation score: inactive

MWSDLGV
amyloid nucleation score: -0.173 ± 0.87

MWYLTDWIDCFCLSNMNICT
amyloid nucleation score: 1.81 ± 0.063

MYFILASSISILFGIKVFPM
amyloid nucleation score: inactive

MYQDPCIHSVCCWIM
amyloid nucleation score: 1.28 ± 0.096

MYQSLAYFASDLRIHWHMRK
amyloid nucleation score: 0.729 ± 0.14

MYRCNVGLLGVFPRCNPYDA
amyloid nucleation score: inactive

MYVQVS
amyloid nucleation score: -0.795 ± 0.91

MYWLHYKVHNYNSCVI
amyloid nucleation score: inactive

NACSARMGVVYNMLPSGESR
amyloid nucleation score: inactive

NADCAYCLLFNLRWSVCVRT
amyloid nucleation score: -0.067 ± 0.36

NALCSHTILLYGEVMLKSWL
amyloid nucleation score: inactive

NALFHRI
amyloid nucleation score: inactive

NAMGTFSMGDI
amyloid nucleation score: inactive

NCELGYARPLGDAMLNRAWF
amyloid nucleation score: inactive

NCFEYLYPRVTDTELNRFFL
amyloid nucleation score: inactive

NCIAFGWLWSELRN
amyloid nucleation score: inactive

NCIIR
amyloid nucleation score: inactive

NCMEINVYFTFVEMQLAELD
amyloid nucleation score: 2.69 ± 0.055

NCNIWIEVQFTASDVIISWV
amyloid nucleation score: 1.69 ± 0.066

NCNPFCIRLWFPNEYICW
amyloid nucleation score: inactive

NCQSTTTQGILCISLSYMEI
amyloid nucleation score: inactive

NDFVRSADKDFGSDRFSNVV
amyloid nucleation score: inactive

NDKVYRVGRTNLYNV
amyloid nucleation score: inactive

NDSLTLIWNGGSGYDVIKFE
amyloid nucleation score: inactive

NDSSQLLITI
amyloid nucleation score: inactive

NEALSERQYRAMLTETLVAG
amyloid nucleation score: inactive

NEGWPLWQWSSAVKHTFSKR
amyloid nucleation score: 0.422 ± 0.31

NENTNLIRLNGTDMRAYKLW
amyloid nucleation score: inactive

NESFGTARSAGDGMKNVPGP
amyloid nucleation score: inactive

NEVVQSLTRSIFRRYSKSAM
amyloid nucleation score: 0.129 ± 0.98

NFCLVRGVNLANPFSNDCKS
amyloid nucleation score: inactive

NFFCASRVMGLLMIF
amyloid nucleation score: inactive

NFFESLMVMSDKASLSVMK
amyloid nucleation score: inactive

NFFSA
amyloid nucleation score: -0.51 ± 0.73

NFFTL
amyloid nucleation score: inactive

NFFVKTNRHGNVTTFGGR
amyloid nucleation score: inactive

NFGQKQNIWAWTVYCPDPCE
amyloid nucleation score: inactive

NFIQVMAIIGLFAVHRGCVT
amyloid nucleation score: 0.758 ± 0.14

NFLYWHRWVVWSSMSSYRKP
amyloid nucleation score: -0.348 ± 0.63

NFPYYSEYFFLCIRDSTSKS
amyloid nucleation score: inactive

NFQNSVLFNMV
amyloid nucleation score: inactive

NFSFGGLIISGCIMRNWGLQ
amyloid nucleation score: 2.92 ± 0.077

NFSVTYEFFGQSI
amyloid nucleation score: 0.292 ± 0.32

NFTRC
amyloid nucleation score: inactive

NFWEYQSECWRVTQW
amyloid nucleation score: inactive

NGCSS
amyloid nucleation score: inactive

NGCTW
amyloid nucleation score: inactive

NGDYDIIRSTCYTSKVYQSV
amyloid nucleation score: inactive

NGFSFRLGWH
amyloid nucleation score: 1.55 ± 0.1

NGLGSTRMNQGHKLVFTNSI
amyloid nucleation score: inactive

NGLVCQKWRPYSI
amyloid nucleation score: inactive

NGNFWCFVLVLS
amyloid nucleation score: 0.595 ± 0.24

NGSGGWLNINNISEGRWRTG
amyloid nucleation score: inactive

NGTATADRSNKSVPFPSI
amyloid nucleation score: inactive

NGWCHYWVWASIYDPNEISA
amyloid nucleation score: inactive

NGWYKVGLMA
amyloid nucleation score: inactive

NGYTNASS
amyloid nucleation score: inactive

NHKPLWFFDVATTGTGLNR
amyloid nucleation score: inactive

NHSES
amyloid nucleation score: inactive

NIDFLLSYRTMSKFYPNIRM
amyloid nucleation score: inactive

NIFRMRNQVIRSVLNVHVMT
amyloid nucleation score: inactive

NILLND
amyloid nucleation score: inactive

NIRYFYAFRLA
amyloid nucleation score: inactive

NISLELDVFCTTNNMG
amyloid nucleation score: 1.74 ± 0.089

NISVLIRCLWNFSEGKAFLA
amyloid nucleation score: inactive

NIVERGSDLRGLCKTFNDIA
amyloid nucleation score: inactive

NKAYCWTLYLGMINDCIRFY
amyloid nucleation score: inactive

NKKSSAMYCQGIFLTFILLV
amyloid nucleation score: inactive

NKLCYSSDLYWRVTDKDEHR
amyloid nucleation score: inactive

NKSRTYCSARRLHRGKFRLI
amyloid nucleation score: inactive

NLAMWMDSECLRVSN
amyloid nucleation score: inactive

NLAYTMRGTELICTYVSILP
amyloid nucleation score: inactive

NLCDVGRMLNCRRTSFGYMF
amyloid nucleation score: inactive

NLCRAI
amyloid nucleation score: 0.256 ± 0.36

NLCVMPRTTGPLS
amyloid nucleation score: inactive

NLEEHIRCFKGDRDPYLFF
amyloid nucleation score: inactive

NLFMMHV
amyloid nucleation score: inactive

NLFYNEEDVLIQFVYQRTIW
amyloid nucleation score: inactive

NLGLQDFNCNWGFTYGGLTK
amyloid nucleation score: inactive

NLHTTEIKFSPLLWKISSTW
amyloid nucleation score: 0.313 ± 0.34

NLKSWFFCIVHCIRLHASVN
amyloid nucleation score: inactive

NLLAMRLWQAQSMKRSLGFL
amyloid nucleation score: inactive

NLLKSTYSVIASCASLLDLV
amyloid nucleation score: inactive

NLNYWAFDYADKLIEHSCVR
amyloid nucleation score: inactive

NLPHIYRDHRRFWVGFSIMT
amyloid nucleation score: 1.12 ± 0.17

NLRSS
amyloid nucleation score: inactive

NLSALMLLLQDRDRAISRPR
amyloid nucleation score: 0.919 ± 0.21

NLSRLKRFYIANSR
amyloid nucleation score: inactive

NLTLVVHYISRQSISEHYLR
amyloid nucleation score: inactive

NLVRSDSVRFAYVKWGPMHG
amyloid nucleation score: inactive

NLVSVSRSYIKCVDRHRRTA
amyloid nucleation score: inactive
